Test results as given in patent US8242078B2, “Therapeutics to inhibit MLL-menin interaction for treating leukemia” (The University of Chicago, priority 2006, dated 2012).
Entries after “also recorded” stand apart in the source; their conditions may differ. Peptide text beside a SMILES is read from it.

How the values were obtained:
normal human CD34+ cells [1] = test: Erythroid differentiation of normal human CD34+ cells, day 10; format: cell-based; conditions: 7.5 μm or 10 μm
Method: (§1) To assess the effects of TAT-MLL peptide on hematopoiesis, normal human CD34^+ cells were incubated with either the TAT-MLL peptide or the TAT-scrambled peptide at a concentration of either 7.5 μm or 10 μm. There was no effect of either the TAT-MLL peptide or the TAT-scrambled peptide on myeloid or erythroid differentiation. […] CD14-PE, CD15-FITC, CD71-FITC and GlyA (CD235a)-PE antibodies were obtained from Becton Dickinson

normal human CD34+ cells [2] = test: Myeloid differentiation of normal human CD34+ cells, day 10; format: cell-based; conditions: 7.5 μm or 10 μm
Method: as §1

[3] = biological target: T1, interaction of transfected MLL with endogenous menin (Homo sapiens, UniProt O00255); test: Disruption of binding of transfected FLAG-tagged MLL 1-330 to endogenous menin (anti-FLAG immunoprecipitation, anti-menin Western blot); conditions: for block of the interaction of transfected MLL with endogenous menin (Western blot, FIG. 1): lysates of 293 cells transfected with FLAG-tagged MLL 1-330, incubated with peptide, anti-FLAG IP, anti-menin blot; for inhibition of the binding of transfected MLL 1-330 to endogenous menin (Western blot, FIG. 2): each peptide tested at 10, 20, and 30 μM
T1 construct: endogenous in cells; host or cells: 293 cells (lysate; cells transfected with FLAG-MLL 1-330)
T1 sequence (O00255 1-610): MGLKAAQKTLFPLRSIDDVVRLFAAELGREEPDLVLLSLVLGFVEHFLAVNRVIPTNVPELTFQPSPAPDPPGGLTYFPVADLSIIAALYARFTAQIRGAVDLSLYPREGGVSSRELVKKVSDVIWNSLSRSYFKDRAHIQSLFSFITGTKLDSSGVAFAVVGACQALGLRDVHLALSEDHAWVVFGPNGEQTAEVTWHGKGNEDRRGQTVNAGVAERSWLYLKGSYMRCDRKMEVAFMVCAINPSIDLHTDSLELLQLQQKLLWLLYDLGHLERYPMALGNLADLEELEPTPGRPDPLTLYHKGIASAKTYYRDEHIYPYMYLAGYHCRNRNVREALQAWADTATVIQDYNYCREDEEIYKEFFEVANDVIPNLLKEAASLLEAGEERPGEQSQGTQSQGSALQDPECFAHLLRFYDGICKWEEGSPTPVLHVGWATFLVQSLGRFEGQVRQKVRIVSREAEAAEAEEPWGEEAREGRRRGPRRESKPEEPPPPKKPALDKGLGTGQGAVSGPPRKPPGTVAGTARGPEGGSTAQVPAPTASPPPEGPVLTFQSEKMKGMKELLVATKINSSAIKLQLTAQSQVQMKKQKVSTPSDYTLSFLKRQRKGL
Method: To determine the precise domain that mediates the binding of MLL to menin, a series of peptides from the N-terminus of MLL were synthesized. To assess disruption of binding of transfected MLL to endogenous menin, a FLAG-tagged MLL 1-330 construct was transfected into 293 cells and the cell lysates were incubated with a series of peptides listed below or with water as a control. Cell lysates were immunoprecipitated with anti-FLAG antibody (Sigma), separated by SDS-PAGE and blotted with an anti-menin antibody (Bethyl Laboratories Inc, or Santa-Cruz). The amino acid numbers from the N-terminus of MLL are indicated below (preceding the amino acid sequence) for the peptides analyzed for their ability to disrupt the interaction of MLL and menin.
Conditional inactivation of menin results in the reversal of the transforming properties of MLL fusion proteins. A high affinity menin binding domain has been localized to the N-terminal residues of MLL, and deletion of residues 6 through 10 of MLL prevents MLL-ELL from transforming hematopoietic progenitor cells. To target the MLL-menin interaction, a series of peptides were developed for the potential to block the interaction of menin with MLL. To establish the activity of these peptides, lysates of cells transfected with FLAG-tagged N-terminal MLL sequences were examined. The lysates were immunoprecipitated with a FLAG antibody, incubated with either an MLL peptide or a control scrambled peptide, and then blotted with an anti-menin antibody. […] To examine the activity of the TAT-MLL peptide, mouse and human leukemia cell lines were treated with the TAT-MLL peptide. […] (#TIB-202, American Type Culture Collection, Manassas, Va.).

Molecule | block of the interaction of transfected MLL with endogenous menin (Western blot, FIG. 1) [3] | further results
C[C@H](NC(=O)[C@@H]1CCCN1C(=O)[C@H](Cc1ccccc1)NC(=O)[C@H](CCCNC(=N)N)NC(=O)[C@H](Cc1c[nH]c2ccccc12)NC(=O)[C@H](CCCNC(=N)N)NC(=O)[C@H](CS)NC(=O)CNC(=O)CNC(=O)[C@H](CCCNC(=N)N)NC(=O)[C@H](CCCNC(=N)N)NC(=O)[C@H](CCCNC(=N)N)NC(=O)[C@H](CCC(N)=O)NC(=O)[C@H](CCCNC(=N)N)NC(=O)[C@H](CCCNC(=N)N)NC(=O)[C@H](CCCCN)NC(=O)[C@H](CCCCN)NC(=O)[C@@H](N)CCCNC(=N)N)C(=O)N[C@@H](CCCNC(=N)N)C(=O)N1CCC[C@H]1C(=O)NCC(=O)O [TAT-MLL, RKKRRQRRR-GG-CRWRFPARPG (SEQ ID NO: 15)] (H-RKKRRQRRRGGCRWRFPARPG-OH) |  | effect on erythroid differentiation (in words) (normal human CD34+ cells [1]): no effect; effect on myeloid differentiation (in words) (normal human CD34+ cells [2]): no effect
C[C@H](NC(=O)[C@H](CCCNC(=N)N)NC(=O)CNC(=O)CNC(=O)[C@H](CCCNC(=N)N)NC(=O)[C@H](CCCNC(=N)N)NC(=O)[C@H](CCCNC(=N)N)NC(=O)[C@H](CCC(N)=O)NC(=O)[C@H](CCCNC(=N)N)NC(=O)[C@H](CCCNC(=N)N)NC(=O)[C@H](CCCCN)NC(=O)[C@H](CCCCN)NC(=O)[C@@H](N)CCCNC(=N)N)C(=O)N[C@@H](Cc1ccccc1)C(=O)N[C@@H](CCCNC(=N)N)C(=O)N1CCC[C@H]1C(=O)N[C@@H](CS)C(=O)N1CCC[C@H]1C(=O)N[C@@H](CCCNC(=N)N)C(=O)N[C@@H](Cc1c[nH]c2ccccc12)C(=O)NCC(=O)O [TAT-scrambled, RKKRRQRRR-GG-RAFRPCPRWG (SEQ ID NO: 18), reference compound] (H-RKKRRQRRRGGRAFRPCPRWG-OH) |  | effect on erythroid differentiation (in words) (normal human CD34+ cells [1]): no effect; effect on myeloid differentiation (in words) (normal human CD34+ cells [2]): no effect
AHSCRWRFPARPG (SEQ ID NO: 11) [MLL peptide 2-14, peptide from the N-terminus of MLL, amino acids 2-14] | block the interaction of transfected MLL with endogenous menin | 
AHSCRWRFPARPGTTGG (SEQ ID NO: 7) [MLL peptide 2-18, peptide from the N-terminus of MLL, amino acids 2-18] | block the interaction of transfected MLL with endogenous menin | 
CRWRFPARPG (SEQ ID NO: 14) [MLL peptide 5-14] | block the interaction of transfected MLL with endogenous menin; also recorded: sufficient to block interaction with endogenous menin | inhibition of the binding of transfected MLL 1-330 to endogenous menin (Western blot, FIG. 2) [3]: dose-dependent inhibition
CRWRFPARPGTTGG (SEQ ID NO: 10) [MLL peptide 5-18, peptide from the N-terminus of MLL, amino acids 5-18] | block the interaction of transfected MLL with endogenous menin | 
HSCRWRFPARPG (SEQ ID NO: 12) [MLL peptide 3-14, peptide from the N-terminus of MLL, amino acids 3-14] | block the interaction of transfected MLL with endogenous menin | 
HSCRWRFPARPGTTGG (SEQ ID NO: 8) [MLL peptide 3-18, peptide from the N-terminus of MLL, amino acids 3-18] | block the interaction of transfected MLL with endogenous menin | 
MAHSCRWRFP (SEQ ID NO: 19) [MLL peptide 1-10, peptide from the N-terminus of MLL, amino acids 1-10] | do not block the interaction of MLL with menin | 
MAHSCRWRFPA (SEQ ID NO: 20) [MLL peptide 1-11, peptide from the N-terminus of MLL, amino acids 1-11] | do not block the interaction of MLL with menin | 
MAHSCRWRFPAR (SEQ ID NO: 21) [MLL peptide 1-12, peptide from the N-terminus of MLL, amino acids 1-12] | do not block the interaction of MLL with menin | 
MAHSCRWRFPARP (SEQ ID NO: 1) [MLL peptide 1-13, peptide from the N-terminus of MLL, amino acids 1-13] | block the interaction of transfected MLL with endogenous menin | 
MAHSCRWRFPARPG (SEQ ID NO: 2) [MLL peptide 1-14, peptide from the N-terminus of MLL, amino acids 1-14] | block the interaction of transfected MLL with endogenous menin | 
MAHSCRWRFPARPGTTGG (SEQ ID NO: 3) [MLL peptide 1-18, peptide from the N-terminus of MLL, amino acids 1-18] | block the interaction of transfected MLL with endogenous menin | 
MAHSCRWRFPARPGTTGGGGGG (SEQ ID NO: 4) [MLL peptide 1-22, peptide from the N-terminus of MLL, amino acids 1-22] | block the interaction of transfected MLL with endogenous menin | 
MAHSCRWRFPARPGTTGGGGGGGRRG (SEQ ID NO: 5) [MLL peptide 1-26, peptide from the N-terminus of MLL, amino acids 1-26] | block the interaction of transfected MLL with endogenous menin | 
MAHSCRWRFPARPGTTGGGGGGGRRGLGGG (SEQ ID NO: 6) [MLL peptide 1-30, peptide from the N-terminus of MLL, amino acids 1-30] | block the interaction of transfected MLL with endogenous menin | 
RFPARPGTTGG (SEQ ID NO: 24) [MLL peptide 8-18, peptide from the N-terminus of MLL, amino acids 8-18] | do not block the interaction of MLL with menin | 
RKKRRQRRR-GG-MAHSCRWRFPARPGTTGG (SEQ ID NO: 17) (RKKRRQRRRGGMAHSCRWRFPARPGTTGG) [TAT-MLL 1-18, longer MLL peptide, residues 1-18, fused to TAT] |  | inhibition of the binding of transfected MLL 1-330 to endogenous menin (Western blot, FIG. 2) [3]: dose-dependent inhibition
RWRFPARPG (SEQ ID NO: 25) [MLL peptide 6-14, peptide from the N-terminus of MLL, amino acids 6-14] | do not block the interaction of MLL with menin | 
RWRFPARPGTTGG (SEQ ID NO: 22) [MLL peptide 6-18, peptide from the N-terminus of MLL, amino acids 6-18] | do not block the interaction of MLL with menin | 
SCRWRFPARPG (SEQ ID NO: 13) [MLL peptide 4-14, peptide from the N-terminus of MLL, amino acids 4-14] | block the interaction of transfected MLL with endogenous menin | 
SCRWRFPARPGTTGG (SEQ ID NO: 9) [MLL peptide 4-18, peptide from the N-terminus of MLL, amino acids 4-18] | block the interaction of transfected MLL with endogenous menin | 
WRFPARPGTTGG (SEQ ID NO: 23) [MLL peptide 7-18, peptide from the N-terminus of MLL, amino acids 7-18] | do not block the interaction of MLL with menin | 
